This passage reports self-cleavage results from the RNAGym collection of RNA variant scans (doi:10.7554/elife.80360).

B1: CPEB3 Ribozyme (parent)
chain: GGGGGCCACAGCAGAAGCGUUCACGUCGCGGCCCCUGUCAGAUUCUGGUGAAUCUGCGAAUUCUGCUGU

Variants of B1 are the subject of this data set. As to the kind of experiment: self-cleavage, relative activity (ratio to wild type); higher = more cleavage; co-transcriptional.
Consider GGGGGCCACAGCAGCAGCGUUCACUUCGCGGCCCCUGUCAGAUUCUGGUGAAUCUGCGAAUUCUGCUGU, for which the self-cleavage is 0.192.

With GGGGGCCACAGCAGCAGCGUUCACCUCGCGGCCCCUGUCAGAUUCUGGUGAAUCUGCGAAUUCUGCUGU, the self-cleavage came out at 0.186.

GGGGGCCACAGCAGCAGCGUUCACGUCGCGGCCCCUGUCAGAUUCUGGUGAAUCUGCGAAUUCUGCUGA: the self-cleavage was determined as 0.962.

In the case of GGGGGCCACAGCAGCAGCGUUCACGUCGCGGCCCCUGUCAGAUUCUGGUGAAUCUGCGAAUUCUGCUGG, the self-cleavage worked out at 1.02.

Take GGGGGCCACAGCAGGAGCGUUGACGUCGCGGCCCCUGUCAGAUUCUGGUGAAUCUGCGAAUUCUGCUGU: the self-cleavage is 0.157.

Consider GGGGGCCACAGCAGGAGCGUUAACGUCGCGGCCCCUGUCAGAUUCUGGUGAAUCUGCGAAUUCUGCUGU, for which the self-cleavage turned out to be 0.191.

As for GGGGGCCACAGCAGCAGCGUUCACGUCGCCGCCCCUGUCAGAUUCUGGUGAAUCUGCGAAUUCUGCUGU, the self-cleavage was determined as 0.189.

Take GGGGGCCACAGCAGCAGCGUUCACGUCGCGGCCCCUGUCAGAUUCUGGUGAAUCUGCGUAUUCUGCUGU: the self-cleavage worked out at 0.353.

As for GGGGGCCACAGCAGCAGCGUUCACGUCGCGGCCCCUGUCAGAUUCUGGUGAAUCUGCGGAUUCUGCUGU, the self-cleavage worked out at 0.798.

GGGGGCCACAGCAGCAGCGUUCACGUCGCGGCCCCUGUCAGAUUCUGGUGUAUCUGCGAAUUCUGCUGU: the self-cleavage was determined as 0.826.

Regarding GGGGGCCACAGCAGCAGCGUUCACGUCGCGGCCCCUGUCAGAUUCUGGUGGAUCUGCGAAUUCUGCUGU, the self-cleavage came out at 0.897.

For GGGGGCCACAGCAGCAGCGUGCACGUCGCGGCCCCUGUCAGAUUCUGGUGAAUCUGCGAAUUCUGCUGU, the self-cleavage came to 0.157.

For the variant GGGGGCCACAGCAGCAGCGUUCACGUCGCGGCCCCUGUCAGAUUCUGGAGAAUCUGCGAAUUCUGCUGU, the self-cleavage is 0.889.

Consider GGGGGCCACAGCAGCAGCGUUCACGUCGCGGCCCCUGUCAGAUUCUGGUGAUUCUGCGAAUUCUGCUGU, for which the self-cleavage was found to be 0.816.

With GGGGGCCACAGCAGCAGCGUUCACGUCGCGGCCCCUGUCAGAUUCUGGUGACUCUGCGAAUUCUGCUGU, the self-cleavage was determined as 0.748.

For GGGGGCCACAGCAGCAGCCUUCACGUCGCGGCCCCUGUCAGAUUCUGGUGAAUCUGCGAAUUCUGCUGU, the self-cleavage worked out at 0.214.

GGGGGCCACAGCAGCAGCAUUCACGUCGCGGCCCCUGUCAGAUUCUGGUGAAUCUGCGAAUUCUGCUGU: the self-cleavage worked out at 0.185.

As to GGGGGCCACAGCAGCAGCUUUCACGUCGCGGCCCCUGUCAGAUUCUGGUGAAUCUGCGAAUUCUGCUGU, the self-cleavage stood at 0.164.

Take GGGGGCCACAGCAGCAGCGUUCACGUCGCGGCCCCUGUCAGAUUCUGGUGAAUCGGCGAAUUCUGCUGU: the self-cleavage worked out at 0.32.

For the variant GGGGGCCACAGCAGGAGCGUUCACGUCGCGGGCCCUGUCAGAUUCUGGUGAAUCUGCGAAUUCUGCUGU, the self-cleavage turned out to be 0.415.

On to GGGGGCCACAGCAGCAGCGUUCACGUCGCGGCCCCUGUCAUAUUCUGGUGAAUCUGCGAAUUCUGCUGU, for which the self-cleavage turned out to be 0.463.

GGGGGCCACAGCAGCAGCGUUCACGUCGCGGCCCCUGUCAGAUUCUGGUGAAUCUGCGAAUUCUGGUGU: the self-cleavage was determined as 0.351.

For the variant GGGGGCCACAGCAGCAGCGUUCACGUCGCGGCCCCUGUCAGAUUCUGGUGAAUCUGCGAAUGCUGCUGU, the self-cleavage came to 1.02.

As for GGGGGCCACAGCAGCAGCGUUCACGUCGCGGCCCCUGUCAGAUUCUGGUGAAUCUGCGAAUCCUGCUGU, the self-cleavage came out at 0.841.

Regarding GGGGGCCACAGCAGCAGCGUUCACGUCGCGGCCCCUGUCAGAUUCUGGUGAAUCUGCGAAUACUGCUGU, the self-cleavage was 0.912.

For the variant GGGGGCCACAGCAGGAGCGUUCACGUCGCGGCCCCUGUCAGAUUCUGGUGAAUCUGCGAUUUCUGCUGU, the self-cleavage turned out to be 0.579.

Turning to GGGGGCCACAGCAGCAGCGUUCACGUCGCGGCCCCUGUCAGAGUCUGGUGAAUCUGCGAAUUCUGCUGU, the self-cleavage worked out at 0.491.

As to GGGGGCCACAGCAGCAGCGUUCACGUCGCGGCCCCUGUCAGAAUCUGGUGAAUCUGCGAAUUCUGCUGU, the self-cleavage came to 0.459.

Turning to GGGGGCCACAGCAGCAGCGUUCACGUCGCGUCCCCUGUCAGAUUCUGGUGAAUCUGCGAAUUCUGCUGU, the self-cleavage was 0.241.

On to GGGGGCCACAGCAGCAGCGUUCACGUCGCGGCCCCUGUCAGAUUCUGGUGAAUCUGCGAAUUAUGCUGU, for which the self-cleavage was found to be 0.921.

As for GGGGGCCACAGCAGCAGCGUUCACGUCGCGGCCCCUGUCAGAUUCUGGUGAAUCUGCGAAUUUUGCUGU, the self-cleavage is 0.937.

Regarding GGGGGCCACAGCAGGAGCGUUCACGUCGCGGCCCCUGUCAGAUUCUGGUGAAUCUGCGCAUUCUGCUGU, the self-cleavage came out at 0.649.

Turning to GGGGGCCACAGCAGCAGCGUUCACGUCGCGGCCCCUGUAAGAUUCUGGUGAAUCUGCGAAUUCUGCUGU, the self-cleavage is 0.359.

Take GGGGGCCACAGCAGGAGCGUUCAGGUCGCGGCCCCUGUCAGAUUCUGGUGAAUCUGCGAAUUCUGCUGU: the self-cleavage stood at 0.405.

Turning to GGGGGCCACAGCAGGAGCGUUCAUGUCGCGGCCCCUGUCAGAUUCUGGUGAAUCUGCGAAUUCUGCUGU, the self-cleavage came out at 0.87.

Turning to GGGGGCCACAGCAGCAGCGUUCACGUCGCGGCCCCUGUCAGAUUCGGGUGAAUCUGCGAAUUCUGCUGU, the self-cleavage worked out at 0.929.

Turning to GGGGGCCACAGCAGCAGCGUUCACGUCGCGGCCCCUGUCAGAUUCUCGUGAAUCUGCGAAUUCUGCUGU, the self-cleavage was 0.894.

In the case of GGGGGCCACAGCAGCAGCGUUCACGUCGCGGCCCCUGUCAGAUUCUAGUGAAUCUGCGAAUUCUGCUGU, the self-cleavage is 0.889.

For GGGGGCCACAGCAGCAGCGUUCACGUCGCGGCCCCUGUCAGAUUCUGGUGAAUCUGCGAAUUCUGCCGU, the self-cleavage came out at 0.888.
